Paper PMC9890643

Molecular target: apolipoprotein A-1 (ApoA1) (UniProt P02647 25-267)
Assay: electrochemical aptasensor

apolipoprotein A-1 (ApoA1), sequence (P02647 25-267): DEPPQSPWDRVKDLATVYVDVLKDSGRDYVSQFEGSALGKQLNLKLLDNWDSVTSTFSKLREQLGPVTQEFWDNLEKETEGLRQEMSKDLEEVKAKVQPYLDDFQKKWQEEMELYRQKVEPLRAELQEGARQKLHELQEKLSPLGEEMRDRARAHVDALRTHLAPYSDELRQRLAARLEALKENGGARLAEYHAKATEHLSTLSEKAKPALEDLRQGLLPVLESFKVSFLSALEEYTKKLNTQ

Question: Does CCTCGGCACGTTCTCAGTAGCGCTCGCTGGTCATCCCACA (ssDNA, 5'-thiol-C6) [ApoA1 thiolated aptamer] bind?
Answer: Result: binds
